Results taken from the supplement of paper PMC10567573.

B1: STK38L (parent)
chain: FCIDSENRIGNSGVEEIKGHPFFE

Variants of: B1
Experiment: protein stability index of a GFP-peptide fusion (GPS, HEK-293T) (PSI 1-6); higher = more stable
Settings: c terminus: a fixed tail appended
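Also: lentivirally expressed fusions sorted by FACS into six bins by GFP to DsRed ratio, PSI derived from sequencing read proportions per bin multiplied by bin number.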

Row | Variant | protein stability index
1 | FCIDSENRIGNSFVEEIKGHPFFE | 2.95
2 | FCIDSENRIGNSVVEEIKGHPFFE | 1.97
3 | FCIDSENRIGNSDVEEIKGHPFFE | 2.55
4 | FCIDSENRIGNSWVEEIKGHPFFE | 2.87
5 | FCIDSENRIGNSTVEEIKGHPFFE | 2.75
6 | FCIDSENRIGNSIVEEIKGHPFFE | 2.47
7 | FCIDSENRIGNSLVEEIKGHPFFE | 2.22
8 | FCIDSENRIGNSYVEEIKGHPFFE | 2.28
9 | FCIDSENRIGNSEVEEIKGHPFFE | 3.12
10 | FCIDSENRIGNSMVEEIKGHPFFE | 2.12
11 | FCIDSENRIGNSHVEEIKGHPFFE | 2.56
12 | FCIDSENRIGNSAVEEIKGHPFFE | 2.07
13 | FCIDSENRIGNSQVEEIKGHPFFE | 2.44
14 | FCIDSENRIGNSKVEEIKGHPFFE | 2.44
15 | FCIDSENRIGNSRVEEIKGHPFFE | 2.26
16 | FCIDSENRIGNSNVEEIKGHPFFE | 2.73
17 | FCIDSENRIGNSCVEEIKGHPFFE | 2.1
18 | FCIDSENRIGNSPVEEIKGHPFFE | 2.68
19 | FCIDSENRIGNSGVKEIKGHPFFE | 2.22
20 | FCIDSENRIGNSGVLEIKGHPFFE | 1.9
21 | FCIDSENRIGNSGVCEIKGHPFFE | 2.68
22 | FCIDSENRIGNSGVHEIKGHPFFE | 2
23 | FCIDSENRIGNSGVAEIKGHPFFE | 1.99
24 | FCIDSENRIGNSGVDEIKGHPFFE | 1.62

Row | Variant | protein stability index
25 | FCIDSENRIGNSGVGEIKGHPFFE | 2.08
26 | FCIDSENRIGNSGVIEIKGHPFFE | 1.46
27 | FCIDSENRIGNSGVFEIKGHPFFE | 1.73
28 | FCIDSENRIGNQGVEEIKGHPFFE | 2.2
29 | FCIDSENRIGNNGVEEIKGHPFFE | 2.55
30 | FCIDSENRIGNYGVEEIKGHPFFE | 1.99
31 | FCIDSENRIGNLGVEEIKGHPFFE | 1.9
32 | FCIDSENRIGNKGVEEIKGHPFFE | 2.78
33 | FCIDSENRIGNWGVEEIKGHPFFE | 1.5
34 | FCIDSENRIGNIGVEEIKGHPFFE | 2.35
35 | FCIDSENRIGNDGVEEIKGHPFFE | 2.32
36 | FCIDSENRIGNGGVEEIKGHPFFE | 1.91
37 | FCIDSENRIGNFGVEEIKGHPFFE | 1.84
38 | FCIDSENRIGNVGVEEIKGHPFFE | 2
39 | FCIDSENRIGNEGVEEIKGHPFFE | 2.52
40 | FCIDSENRIGNRGVEEIKGHPFFE | 2.35
41 | FCIDSENRIGNMGVEEIKGHPFFE | 1.72
42 | FCIDSENRIGNAGVEEIKGHPFFE | 1.98
43 | FCIDSENRIGNHGVEEIKGHPFFE | 2.56
44 | FCIDSENRIGNTGVEEIKGHPFFE | 2.52
45 | FCIDSENRIGNPGVEEIKGHPFFE | 2.32
46 | FCIDSENRIANSGVEEIKGHPFFE | 2.27
47 | FCIDSENRIDNSGVEEIKGHPFFE | 2.75
48 | FCIDSENRICNSGVEEIKGHPFFE | 2.32

Row | Variant | protein stability index
49 | FCIDSENRIPNSGVEEIKGHPFFE | 2.31
50 | FCIDSENRIFNSGVEEIKGHPFFE | 1.57
51 | FCIDSENRISNSGVEEIKGHPFFE | 2.39
52 | FCIDSENRIYNSGVEEIKGHPFFE | 1.79
53 | FCIDSENRIINSGVEEIKGHPFFE | 1.87
54 | FCIDSENRIENSGVEEIKGHPFFE | 2.54
55 | FCIDSENRIRNSGVEEIKGHPFFE | 2.98
56 | FCIDSENRITNSGVEEIKGHPFFE | 2.38
57 | FCIDSENRIMNSGVEEIKGHPFFE | 2.11
58 | FCIDSENRINNSGVEEIKGHPFFE | 3.64
59 | FCIDSENRIHNSGVEEIKGHPFFE | 2.71
60 | FCIDSENRIQNSGVEEIKGHPFFE | 3.48
61 | FCIDSENRIKNSGVEEIKGHPFFE | 2.53
62 | FCIDSENRILNSGVEEIKGHPFFE | 1.96
63 | FCIDSENRIWNSGVEEIKGHPFFE | 1.1
64 | FCIDSENRIVNSGVEEIKGHPFFE | 1.54
65 | FCIDSENCIGNSGVEEIKGHPFFE | 2.17
66 | FCIDSENWIGNSGVEEIKGHPFFE | 2.87
67 | FCIDSENTIGNSGVEEIKGHPFFE | 3.15
68 | FCIDSENVIGNSGVEEIKGHPFFE | 2.02
69 | FCIDSENQIGNSGVEEIKGHPFFE | 2.83
70 | FCIDSENSIGNSGVEEIKGHPFFE | 2.55
71 | FCIDSENDIGNSGVEEIKGHPFFE | 3.9
72 | FCIDSENPIGNSGVEEIKGHPFFE | 2.71

Row | Variant | protein stability index
73 | FCIDSENGIGNSGVEEIKGHPFFE | 2.8
74 | FCIDSENLIGNSGVEEIKGHPFFE | 2.34
75 | FCIDSENKIGNSGVEEIKGHPFFE | 2.37
76 | FCIDSENHIGNSGVEEIKGHPFFE | 2.72
77 | FCIDSENIIGNSGVEEIKGHPFFE | 2.79
78 | FCIDSENNIGNSGVEEIKGHPFFE | 2.94
79 | FCIDSENFIGNSGVEEIKGHPFFE | 2.45
80 | FCIDSENMIGNSGVEEIKGHPFFE | 2.67
81 | FCIDSENAIGNSGVEEIKGHPFFE | 2.67
82 | FCIDSENYIGNSGVEEIKGHPFFE | 2.15
83 | FCIDSENEIGNSGVEEIKGHPFFE | 3.56
84 | FCIDSKNRIGNSGVEEIKGHPFFE | 2.12
85 | FCIDSCNRIGNSGVEEIKGHPFFE | 1.77
86 | FCIDSRNRIGNSGVEEIKGHPFFE | 2
87 | FCIDSSNRIGNSGVEEIKGHPFFE | 2.86
88 | FCIDSWNRIGNSGVEEIKGHPFFE | 1.35
89 | FCIDSANRIGNSGVEEIKGHPFFE | 1.37
90 | FCIDSVNRIGNSGVEEIKGHPFFE | 1.8
91 | FCIDSHNRIGNSGVEEIKGHPFFE | 2.16
92 | FCIDSPNRIGNSGVEEIKGHPFFE | 1.48
93 | FCIDSYNRIGNSGVEEIKGHPFFE | 1.71
94 | FCIDSGNRIGNSGVEEIKGHPFFE | 1.98
95 | FCIDSNNRIGNSGVEEIKGHPFFE | 1.59
96 | FCIDSINRIGNSGVEEIKGHPFFE | 2.23

Row | Variant | protein stability index
97 | FCIDSFNRIGNSGVEEIKGHPFFE | 1.46
98 | FCIDSLNRIGNSGVEEIKGHPFFE | 2.21
99 | FCIDSQNRIGNSGVEEIKGHPFFE | 1.73
100 | FCIDSMNRIGNSGVEEIKGHPFFE | 2.89
101 | FCIDSTNRIGNSGVEEIKGHPFFE | 1.74
102 | FCIDSDNRIGNSGVEEIKGHPFFE | 1.91
103 | FCIDSECRIGNSGVEEIKGHPFFE | 1.06
104 | FCIDSETRIGNSGVEEIKGHPFFE | 2.17
105 | FCIDSELRIGNSGVEEIKGHPFFE | 2.24
106 | FCIDSEMRIGNSGVEEIKGHPFFE | 2.71
107 | FCIDSERRIGNSGVEEIKGHPFFE | 1.56
108 | FCIDSEERIGNSGVEEIKGHPFFE | 2.87
109 | FCIDSEKRIGNSGVEEIKGHPFFE | 2.25
110 | FCIDSEWRIGNSGVEEIKGHPFFE | 4.28
111 | FCIDSEDRIGNSGVEEIKGHPFFE | 2.43
112 | FCIDSEQRIGNSGVEEIKGHPFFE | 1.51
113 | FCIDSEPRIGNSGVEEIKGHPFFE | 2.21
114 | FCIDSEVRIGNSGVEEIKGHPFFE | 1.22
115 | FCIDSEIRIGNSGVEEIKGHPFFE | 1.58
116 | FCIDSESRIGNSGVEEIKGHPFFE | 2.09
117 | FCIDSEHRIGNSGVEEIKGHPFFE | 1.91
118 | FCIDSEARIGNSGVEEIKGHPFFE | 2.93
119 | FCIDSEYRIGNSGVEEIKGHPFFE | 1.8
120 | FCIDSEGRIGNSGVEEIKGHPFFE | 2.26

Row | Variant | protein stability index
121 | FCIDSENRIGYSGVEEIKGHPFFE | 2.12
122 | FCIDSENRIGSSGVEEIKGHPFFE | 1.99
123 | FCIDSENRIGGSGVEEIKGHPFFE | 2.35
124 | FCIDSENRIGRSGVEEIKGHPFFE | 2.31
125 | FCIDSENRIGHSGVEEIKGHPFFE | 2.38
126 | FCIDSENRIGESGVEEIKGHPFFE | 3.11
127 | FCIDSENRIGTSGVEEIKGHPFFE | 1.81
128 | FCIDSENRIGVSGVEEIKGHPFFE | 2
129 | FCIDSENRIGQSGVEEIKGHPFFE | 2.73
130 | FCIDSENRIGCSGVEEIKGHPFFE | 2.3
131 | FCIDSENRIGASGVEEIKGHPFFE | 2.11
132 | FCIDSENRIGDSGVEEIKGHPFFE | 2.73
133 | FCIDSENRIGMSGVEEIKGHPFFE | 1.83
134 | FCIDSENRIGFSGVEEIKGHPFFE | 1.88
135 | FCIDSENRIGWSGVEEIKGHPFFE | 1.57
136 | FCIDSENRIGLSGVEEIKGHPFFE | 1.65
137 | FCIDSENRIGKSGVEEIKGHPFFE | 2.03
138 | FCIDSENRIGPSGVEEIKGHPFFE | 2.12
139 | FCIDPENRIGNSGVEEIKGHPFFE | 1.47
140 | FCIDLENRIGNSGVEEIKGHPFFE | 1.06
141 | FCIDFENRIGNSGVEEIKGHPFFE | 2.3
142 | FCIDIENRIGNSGVEEIKGHPFFE | 2.44
143 | FCIDGENRIGNSGVEEIKGHPFFE | 2.53
144 | FCIDVENRIGNSGVEEIKGHPFFE | 1.9

Row | Variant | protein stability index
145 | FCIDRENRIGNSGVEEIKGHPFFE | 2.21
146 | FCIDQENRIGNSGVEEIKGHPFFE | 2.49
147 | FCIDYENRIGNSGVEEIKGHPFFE | 1.88
148 | FCIDHENRIGNSGVEEIKGHPFFE | 2.5
149 | FCIDMENRIGNSGVEEIKGHPFFE | 2.12
150 | FCIDNENRIGNSGVEEIKGHPFFE | 2.4
151 | FCIDKENRIGNSGVEEIKGHPFFE | 1.9
152 | FCIDTENRIGNSGVEEIKGHPFFE | 2.25
153 | FCIDSENRIGNSGTEEIKGHPFFE | 2.29
154 | FCIDSENRIGNSGDEEIKGHPFFE | 2.68
155 | FCIDSENRIGNSGWEEIKGHPFFE | 1.96
156 | FCIDSENRIGNSGKEEIKGHPFFE | 2.72
157 | FCIDSENRIGNSGGEEIKGHPFFE | 2.01
158 | FCIDSENRIGNSGHEEIKGHPFFE | 2.06
159 | FCIDSENRIGNSGPEEIKGHPFFE | 2.46
160 | FCIDSENRIGNSGYEEIKGHPFFE | 2.96
161 | FCIDSENRIGNSGLEEIKGHPFFE | 1.54
162 | FCIDSENRIGNSGSEEIKGHPFFE | 2.32
163 | FCIDSENRIGNSGREEIKGHPFFE | 2.32
164 | FCIDSENRIGNSGIEEIKGHPFFE | 2.1
165 | FCIDSENRIGNSGMEEIKGHPFFE | 2.47
166 | FCIDSENRIGNSGCEEIKGHPFFE | 2.27
167 | FCIDSENRIGNSGEEEIKGHPFFE | 2.96
168 | FCIDSENRIGNSGFEEIKGHPFFE | 1.6

Row | Variant | protein stability index
169 | FCIDSENRIGNSGQEEIKGHPFFE | 2.74
170 | FCIDSENRIGNSGAEEIKGHPFFE | 3.13
171 | FCIDSENRIGNSGNEEIKGHPFFE | 2.8
172 | FCIDSENRQGNSGVEEIKGHPFFE | 2.65
173 | FCIDSENRTGNSGVEEIKGHPFFE | 3.21
174 | FCIDSENRCGNSGVEEIKGHPFFE | 2.38
175 | FCIDSENRWGNSGVEEIKGHPFFE | 1.58
176 | FCIDSENREGNSGVEEIKGHPFFE | 3.42
177 | FCIDSENRFGNSGVEEIKGHPFFE | 1.9
178 | FCIDSENRKGNSGVEEIKGHPFFE | 2.19
179 | FCIDSENRSGNSGVEEIKGHPFFE | 2.82
180 | FCIDSENRGGNSGVEEIKGHPFFE | 2.58
181 | FCIDSENRPGNSGVEEIKGHPFFE | 3.17
182 | FCIDSENRMGNSGVEEIKGHPFFE | 2.03
183 | FCIDSENRRGNSGVEEIKGHPFFE | 2.71
184 | FCIDSENRHGNSGVEEIKGHPFFE | 2.9
185 | FCIDSENRNGNSGVEEIKGHPFFE | 2.2
186 | FCIDSENRLGNSGVEEIKGHPFFE | 1.99
187 | FCIDSENRVGNSGVEEIKGHPFFE | 2.73
188 | FCIDSENRYGNSGVEEIKGHPFFE | 2.58
